Laboratory results taken from article PMC6345952, “Novel pseudo-aspartic peptidase from the midgut of the tick Rhipicephalus microplus” (Scientific Reports, 2019).

Target: T1, Rhipicephalus microplus pseudo-aspartic peptidase wild type (Rhipicephalus microplus, UniProt A0A411AQW7 21-361)
T1 construct: RmPAP, pseudo-aspartic peptidase of Rhipicephalus microplus (GenBank MH427522); mature RmPAP (R21-K361) without the putative signal peptide M1-A20; lacks the second catalytic Asp (Pro242); Cloned into pET14b with an N-terminal His tag; the primers that fix the construct's limits are in Sup; also called RmPAPWT; RmPAP
T1 sequence: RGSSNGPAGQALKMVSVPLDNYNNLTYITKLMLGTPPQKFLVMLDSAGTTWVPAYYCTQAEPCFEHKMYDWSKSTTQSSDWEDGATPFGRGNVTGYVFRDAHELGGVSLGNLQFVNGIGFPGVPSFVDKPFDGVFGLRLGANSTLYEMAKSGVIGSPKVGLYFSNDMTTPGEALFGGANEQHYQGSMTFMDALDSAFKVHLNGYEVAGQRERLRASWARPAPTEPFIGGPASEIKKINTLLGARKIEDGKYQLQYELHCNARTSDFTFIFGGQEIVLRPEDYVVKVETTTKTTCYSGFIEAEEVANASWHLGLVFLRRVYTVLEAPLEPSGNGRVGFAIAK
Assay: SPR; Biacore T-200; bovine hemoglobin immobilised on a CM5 chip (FC 2) in acetate buffer pH 5.5, BSA on FC 1 as reference; increasing concentrations of RmPAPWT injected in 10 mM phosphate-citrate buffer, pH 4, 0.15 M NaCl, 20 uL/min; steady-state response (FC2 - FC1) fitted
Settings: both partners purified

B1: bovine hemoglobin (complex)
chain 1: not shown
chain 2: not shown
notes: hemoglobin alpha chain, bovine; hemoglobin beta chain, bovine; the heme groups are not written
  Kd: 33.5 nM
